In this experiment the target is PD-L1 expressed on target cells (K562-PDL1, A375-PDL1, A549-HLA-A2/PDL1) (UniProt Q9NZQ7 19-290, limits assumed). The experiment in a line: cell-based or functional assay.

From patent US20250352581A1 (NEOMICS PHARMACEUTIALS, published 2025) come the findings set out here.

PD-L1 expressed on target cells (K562-PDL1, A375-PDL1, A549-HLA-A2/PDL1), sequence (Q9NZQ7 19-290 limits assumed): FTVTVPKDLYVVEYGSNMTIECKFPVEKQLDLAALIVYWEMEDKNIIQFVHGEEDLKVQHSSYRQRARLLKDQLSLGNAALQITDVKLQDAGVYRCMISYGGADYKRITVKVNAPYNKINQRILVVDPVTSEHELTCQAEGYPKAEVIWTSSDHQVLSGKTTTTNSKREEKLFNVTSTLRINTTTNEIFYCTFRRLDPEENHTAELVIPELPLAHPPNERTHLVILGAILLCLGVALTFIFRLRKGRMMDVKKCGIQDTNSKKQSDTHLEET

B1: PD1-28-TNR9(41BBt) PD-1 chimeric co-stimulatory receptor (PD-1 extracellular domain_CD28 stalk, transmembrane and signaling domain_truncated 4-1BB signaling … (receptor)
chain: FLDSPDRPWNPPTFSPALLVVTEGDNATFTCSFSNTSESFVLNWYRMSPSNQTDKLAAFPEDRSQPGQDCRFRVTQLPNGRDFHMSVVRARRNDSGTYLCGAISLAPKAQIKESLRAELRVTERRAEVPTAHPSPSPRPALFPGPSKPFWVLVVVGGVLACYSLLVTVAFIIFWVRSKRSRLLHSDYMNMTPRRPGPTRKHYQPYAPPRDFAAYRSQPFMRPVQTTQEEDGCSCRFPEEEEGGCEL
Regarding B1, the “T cell expansion (GSK-794 and 2007 TCR T cells on A375-PDL1 cells)” value was at least 60 fold.
